B1: Serine/threonine-protein kinase SIK3 (Homo sapiens), Q9Y2K2 (parent)
chain: MAAAAASGAGGAAGAGTGGAGPAGRLLPPPAPGSPAAPAAVSPAAGQPRPPAPASRGPMPARIGYYEIDRTIGKGNFAVVKRATHLVTKAKVAIKIIDKTQLDEENLKKIFREVQIMKMLCHPHIIRLYQVMETERMIYLVTEYASGGEIFDHLVAHGRMAEKEARRKFKQIVTAVYFCHCRNIVHRDLKAENLLLDANLNIKIADFGFSNLFTPGQLLKTWCGSPPYAAPELFEGKEYDGPKVDIWSLGVVLYVLVCGALPFDGSTLQNLRARVLSGKFRIPFFMSTECEHLIRHMLVLDPNKRLSMEQICKHKWMKLGDADPNFDRLIAECQQLKEERQVDPLNEDVLLAMEDMGLDKEQTLQSLRSDAYDHYSAIYSLLCDRHKRHKTLRLGALPSMPRALAFQAPVNIQAEQAGTAMNISVPQVQLINPENQIVEPDGTLNLDSDEGEEPSPEALVRYLSMRRHTVGVADPRTEVMEDLQKLLPGFPGVNPQAPFLQVAPNVNFMHNLLPMQNLQPTGQLEYKEQSLLQPPTLQLLNGMGPLGRRASDGGANIQLHAQQLLKRPRGPSPLVTMTPAVPAVTPVDEESSDGEPDQEAVQSSTYKDSNTLHLPTERFSPVRRFSDGAASIQAFKAHLEKMGNNSSIKQLQQECEQLQKMYGGQIDERTLEKTQQQHMLYQQEQHHQILQQQIQDSICPPQPSPPLQAACENQPALLTHQLQRLRIQPSSPPPNHPNNHLFRQPSNSPPPMSSAMIQPHGAASSSQFQGLPSRSAIFQQQPENCSSPPNVALTCLGMQQPAQSQQVTIQVQEPVDMLSNMPGTAAGSSGRGISISPSAGQMQMQHRTNLMATLSYGHRPLSKQLSADSAEAHSLNVNRFSPANYDQAHLHPHLFSDQSRGSPSSYSPSTGVGFSPTQALKVPPLDQFPTFPPSAHQQPPHYTTSALQQALLSPTPPDYTRHQQVPHILQGLLSPRHSLTGHSDIRLPPTEFAQLIKRQQQQRQQQQQQQQQQEYQELFRHMNQGDAGSLAPSLGGQSMTERQALSYQNADSYHHHTSPQHLLQIRAQECVSQASSPTPPHGYAHQPALMHSESMEEDCSCEGAKDGFQDSKSSSTLTKGCHDSPLLLSTGGPGDPESLLGTVSHAQELGIHPYGHQPTAAFSKNKVPSREPVIGNCMDRSSPGQAVELPDHNGLGYPARPSVHEHHRPRALQRHHTIQNSDDAYVQLDNLPGMSLVAGKALSSARMSDAVLSQSSLMGSQQFQDGENEECGASLGGHEHPDLSDGSQHLNSSCYPSTCITDILLSYKHPEVSFSMEQAGV
B2: Serine/threonine-protein kinase SIK1 (Homo sapiens), P57059 (parent)
chain: MVIMSEFSADPAGQGQGQQKPLRVGFYDIERTLGKGNFAVVKLARHRVTKTQVAIKIIDKTRLDSSNLEKIYREVQLMKLLNHPHIIKLYQVMETKDMLYIVTEFAKNGEMFDYLTSNGHLSENEARKKFWQILSAVEYCHDHHIVHRDLKTENLLLDGNMDIKLADFGFGNFYKSGEPLSTWCGSPPYAAPEVFEGKEYEGPQLDIWSLGVVLYVLVCGSLPFDGPNLPTLRQRVLEGRFRIPFFMSQDCESLIRRMLVVDPARRITIAQIRQHRWMRAEPCLPGPACPAFSAHSYTSNLGDYDEQALGIMQTLGVDRQRTVESLQNSSYNHFAAIYYLLLERLKEYRNAQCARPGPARQPRPRSSDLSGLEVPQEGLSTDPFRPALLCPQPQTLVQSVLQAEMDCELQSSLQWPLFFPVDASCSGVFRPRPVSPSSLLDTAISEEARQGPGLEEEQDTQESLPSSTGRRHTLAEVSTRLSPLTAPCIVVSPSTTASPAEGTSSDSCLTFSASKSPAGLSGTPATQGLLGACSPVRLASPFLGSQSATPVLQAQGGLGGAVLLPVSFQEGRRASDTSLTQGLKAFRQQLRKTTRTKGFLGLNKIKGLARQVCQAPASRASRGGLSPFHAPAQSPGLHGGAAGSREGWSLLEEVLEQQRLLQLQHHPAAAPGCSQAPQPAPAPFVIAPCDGPGAAPLPSTLLTSGLPLLPPPLLQTGASPVASAAQLLDTHLHIGTGPTALPAVPPPRLARLAPGCEPLGLLQGDCEMEDLMPCSLGTFVLVQ

Variants of: B1
Conditions: with 1433z_human YWHAZ

Variant	effect of a mutation on the interaction
T221A	decreasing interaction

Variants of: B2
Conditions: with 1433z_human YWHAZ

Variant	effect of a mutation on the interaction
T182A	decreasing interaction

— IntAct's records for PubMed 16306228
